Measured values as given in the supplement of paper PMC12042874.
± gives the uncertainty stated by the source.

Assay: amyloid nucleation score (Sup35N fusion, yeast selection) (log enrichment); library NNK2; higher = more nucleation; inactive = no reads after selection
Procedure, shortened: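 Yeast lacking psi expressed peptides of 20 random codons fused to Sup35N, received 100 μM copper sulfate for 24 hours, and were then grown for 7 days at 30°C on medium lacking adenine and uracil. Illumina sequencing of input and output plasmid inserts provided the reads. Nucleation scores are DiMSum log enrichments of output over input, centred on the mode of non-aggregating sequences. Any sequence with under 100 input reads was excluded.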

Row | Substance | amyloid nucleation score
1 | LTACEQSWLKILLLMEMQTL | -0.137 ± 0.54
2 | MRLNYVYGCSFLDRIGT | 0.57 ± 0.33
3 | WNKWSGLVLYTLGKLSY | -0.648 ± 0.39
4 | SDPKLFCAIKAGNTQLGVES | 0.634 ± 0.54
5 | LMGIILF | -1.49 ± 0.78
6 | TSSTSRVDRACPGDSWPDID | -0.068 ± 0.42
7 | CDKFFLDF | -1.9 ± 0.48
8 | LRDKCAPCKCSRGSPLTSIC | -0.489 ± 0.63
9 | ANSAYCIGLCLGNCFMSYFC | 7.452 ± 0.043
10 | DMRTIGEHCW | 1.02 ± 0.52
11 | LKYCVH | -0.414 ± 0.61
12 | KVFIANTIGHWCMNQQIMML | 0.217 ± 0.36
13 | CTFTRLRSSAGSGIRQTPRL | 0.048 ± 0.79
14 | RSCMMCTT | 0.266 ± 0.41
15 | SGTRYYPSWIFGFLVVCKG | -0.404 ± 0.64
16 | LIVESI | inactive
17 | GTDSL | -0.226 ± 1.1
18 | YTRKVSAG | -0.063 ± 0.36
19 | YWLSRSWHWKKLFGGWFALL | 0.016 ± 0.54
20 | EREVCMFRLYAKRGPAVDWL | 2.19 ± 0.21
21 | DGYIVFSRNAVNIFSVYFTG | 6.212 ± 0.04
22 | EPTFWPRW | 0.626 ± 0.35
23 | WICFYDYWQGFSHNDCREME | -0.97 ± 0.36
24 | DSVFVFGSHLFLQNSVRGRT | -0.295 ± 0.24
25 | GRRDNMVRCKRLCRWRVWTA | 0.157 ± 0.55
26 | TKPNVW | -0.067 ± 0.8

Row | Substance | amyloid nucleation score
27 | LSLLRFLNCMRYCLCIGLAS | 4.14 ± 0.093
28 | RGSFYNGRS | 0.049 ± 0.76
29 | FLKTKSFMVKMTGVNNQVFL | 5.96 ± 0.071
30 | WCSCQPSFSKKHGEFYNLFL | 9.215 ± 0.032
31 | MGAVESGKSRSMCAVLAWSE | 1.02 ± 0.41
32 | QSETN | -0.264 ± 0.29
33 | ISDLCNASGWIRKDTSSRRL | -0.27 ± 0.23
34 | SMYSYHHSYRSDTKTSNFFW | 3.4 ± 0.072
35 | PCKNIMVYNSLTDAWPCLYM | 0.093 ± 0.8
36 | ADFTWVKSHVCHMEWSR | 0.551 ± 0.42
37 | YSLFTT | -0.451 ± 0.76
38 | WRVFSYYHISDRF | -0.19 ± 1.1
39 | DRYYRISSFYFISMTKLWD | inactive
40 | GAGPEEPDSLDEVIVT | 0.202 ± 0.3
41 | RFLTCGNFMR | 0.214 ± 0.74
42 | SAIKYIGILAMRDQDQASQI | -1.59 ± 0.62
43 | VSISKVFAAFVFLEPANTRI | 5.36 ± 0.097
44 | ISHYAYQ | 0.811 ± 0.57
45 | CIGYKLLLGELLAP | 0.137 ± 0.5
46 | FIYIVAFPIREISGLSNL | inactive
47 | VESLRLRRSMVRNLILSSSC | -0.125 ± 0.63
48 | GTTSCISDLQWMGYIVKL | 0.039 ± 0.46
49 | HISLVSCHEM | -0.213 ± 1.1
50 | HIRDTESTTLVRVRGCSSPK | 0.07 ± 0.61
51 | HHHLRQVLGESQYLSCLWIK | 0.388 ± 0.47
52 | FMLSVPNVDRFVRRMLGTPE | 1.05 ± 0.42

Row | Substance | amyloid nucleation score
53 | TVRVGAIVNSTHLVGTNSAF | -0.314 ± 0.34
54 | YYDSYPVT | 0.013 ± 0.28
55 | NRISGLGMSSKGKRGKVMLK | 0.493 ± 0.46
56 | LEKKLFVKVYRHSICIGVAE | 1.9 ± 0.43
57 | KVDQGMQSSLRKCPFHQIKP | 1.62 ± 0.32
58 | KKKYACRPAVRFLSIYCWFA | 0.406 ± 0.4
59 | DNGNTMDES | 0.232 ± 0.55
60 | MYIRYPFATPYWSFLLGKVT | -0.117 ± 0.35
61 | TFLGLS | 0.658 ± 0.26
62 | WFPALEYKCAQGQDRQQRPV | 0.351 ± 0.74
63 | ELPMLGFVCNYSKHQLFIFY | 5.04 ± 0.1
64 | SRFIAWSFT | -0.038 ± 1.1
65 | CPMPITRSAVFACTITCSVA | 5.99 ± 0.079
66 | IRNDKYW | -0.101 ± 0.31
67 | TRTGCDMGRRLVCS | 0.171 ± 0.35
68 | NSLANDTQIRKNCLSIV | -0.474 ± 1.1
69 | YVLSRDRSWIHGGVGELGAW | 0.969 ± 0.53
70 | STHSGLSMT | 0.877 ± 0.27
71 | AAFQSMENCCAFCSVRRQES | -0.406 ± 0.38
72 | GIFYSRL | -0.089 ± 0.61
73 | CMGNSYFMFNSYANFKNNWA | 5.54 ± 0.093
74 | DSGVAHCANPCRPYREPVQS | 1.09 ± 0.37
75 | IPTTQLAHCGQVACPARVVP | 1.23 ± 0.28
76 | NESSTSQNKGTRTDKGAESL | 0.376 ± 0.33
77 | YLCPTSGKLCGSSGKTMVTV | -1.18 ± 0.48
78 | YLIIKCDKRCVEDFDALLE | 4.4 ± 0.071

Row | Substance | amyloid nucleation score
79 | AEVGTPESLLEGNIDRERIP | 0.42 ± 0.36
80 | VYLYGPQLLSRWWIQLCCQM | 2.96 ± 0.15
81 | SFDTCRSLIRLYHVPPRTVL | -0.276 ± 0.61
82 | QPCQSNSINDIHRRAGFGPL | -0.437 ± 0.64
83 | RRSWDTYMGERGHQLPNPCG | 0.93 ± 0.36
84 | FIRSSIVWCC | 6.04 ± 0.077
85 | DFCYFSFRPLHLRFQNTDWP | 0.007 ± 1.1
86 | TYYKRN | -0.4 ± 0.34
87 | SSLDWWSCSGFLNKQQIKSN | 1.08 ± 0.12
88 | KERRSSVLVKNRVCSNGYF | inactive
89 | CPDISGVSRHRAKRQKNWLY | inactive
90 | NDFWRYV | -0.591 ± 0.24
91 | KRYGAVHDVCMRVSFNASQV | 1.2 ± 0.32
92 | LGNDR | -0.744 ± 0.48
93 | PNSLYGYKIAFSLDFFVRVY | inactive
94 | IEDYACMLNREMG | 5.36 ± 0.049
95 | YYSKNAVVWVNGCVRRVMII | 0.127 ± 0.63
96 | FMDRFLSWFCHE | 1.26 ± 0.37
97 | NSTFLCLVGFFCLVFSLRQG | 3.77 ± 0.1
98 | INGVPNGYMATLGTTCVKKF | -1.11 ± 0.4
99 | FGKNLTRMSDGGTVVPLRRN | 0.255 ± 0.8
100 | LHTWSVSLVYYNVFYLSSRA | -0.417 ± 1.1
101 | LFIRINWDFSNLWGTFGITV | 0.553 ± 0.2
102 | TTLITVSVT | inactive
103 | NDSVRTVGCIQYMMRIASVF | 0.783 ± 0.57
104 | NFDSYVYNVASVFYVVGLGV | 5.321 ± 0.048

Row | Substance | amyloid nucleation score
105 | RSCSFRRLSGSVETLSGWAK | 0.35 ± 0.43
106 | TAHYLFTWTLSNVILVCGYD | -0.867 ± 0.48
107 | SVLMGG | -0.223 ± 0.54
108 | LRGYRGFPYCDLYFVCMLRN | -1.06 ± 1.1
109 | VPTCN | 0.123 ± 0.54
110 | HKGVM | -1.06 ± 0.5
111 | DALLNFTRLSITNNVNIGP | 5.894 ± 0.046
112 | YHITSSLWVDDIHVLLNMGP | 0.328 ± 0.42
113 | YNSYVVRMGTI | -0.417 ± 1.1
114 | IATAKTRQGFPLMSTLPAIV | 0.37 ± 0.5
115 | WRNCYVYRTVLR | 2.36 ± 0.07
116 | IMRVMPICRFVII | 1.25 ± 0.12
117 | LNGLLTIRADVASKSIRLMH | 0.004 ± 0.51
118 | RTARPILDPC | inactive
119 | FNLADSTSSVTP | 0.048 ± 0.65
120 | GSESLNV | 0.887 ± 0.57
121 | FIKMSNSWAYDAEFSVPLHM | 3.84 ± 0.047
122 | PPNRVNGNW | 0.853 ± 0.57
123 | GSLDWRMELWWKFFLHHQPL | 0.759 ± 0.74
124 | IKSVRTWGSLESA | -0.073 ± 0.34
125 | YFRSCDKCGAYEANHEFKTT | inactive
126 | WAIRPSRYYITAYAVELHCD | 9.114 ± 0.074
127 | VASYAIGSFYADVACVEPRY | 0.835 ± 0.43
128 | SLKCDCYFSTGHI | inactive
129 | KWYICLKIIQWNCISDQC | 5.38 ± 0.054
